{"source": "patent US20250011380A1", "about": "(published 2025)", "binders": {"B1": {"name": "human recombinant TGFβRII/Fc (Fc fusion, UniProt P37173 23-159, looked up, not shown: a dimerising Fc or GST)", "chain": "TIPPHVQKSVNNDMIVTDNNGAVKFPQLCKFCDVRFSTCDNQKSCMSNCSITSICEKPQEVCVAVWRKNDENITLETVCHDPKLPYHDFILEDAASPKCIMKEKKKPGETFFMCSCSSDECNDNIIFSEEYNTSNPD"}}, "target": "TGF-β1 (UniProt P01137 279-390)", "sequence (P01137 279-390 limits assumed)": "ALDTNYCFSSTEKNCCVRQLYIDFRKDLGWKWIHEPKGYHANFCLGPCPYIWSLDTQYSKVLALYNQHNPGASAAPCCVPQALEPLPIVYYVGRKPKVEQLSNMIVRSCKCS", "assay": "cell-based or functional assay", "note": "Values joined by “and” are separate entries in the source; they are usually repeats but may differ in a detail not shown here. Equal entries are not always repeated."}
{"binder": "B1", "values": [{"measurement": "IC50, HEK-Blue TGF-β cells, 0.1 nM TGF-β1", "result": 470, "unit": "pM"}, {"measurement": "IC50, HEK-Blue TGFβ reporter cells, 0.1 nM TGFβ1", "result": "461 pM and 559 pM"}, {"measurement": "fold lower TGF-β1 blocking activity than TGFRt15-TGFRs or TGFRt15*-TGFRs", "result": "~10", "unit": "fold"}]}
